Laboratory results from patent US10119137B2, “Methods used to treat cancer” (THE TRANSLATIONAL GENOMICS RESEARCH INSTITUTE, priority 2015, dated 2018).

B1: TWEAK: Human recombinant TWEAK, tumor necrosis factor-like weak inducer of apoptosis, cytokine ligand of Fn14 (protein)
chain: SAPKGRKTRARRAIAAHYEVHPRPGQDGAQAGVDGTVSGWEEARINSSSPLRYNRQIGEFIVTRAGLYYLYCQVHFDEGKAVYLKLDLLVDGVLALRCLEEFSATAASSLGPQLRLCQVSGLLALRPGSSLRIRTLPWAHLKAAPFLTYFGLFQVH

Assays:
Format in all cases: cell-based, Human
[1] = test system: U87 glioma cells; assay: Histone H2A.X phosphorylation immunoblot after TMZ; conditions: U87, TMZ 500 μM, control or SGEF depleted conditions
Protocol: (§1) For immunoblotting, cells were lysed in 2×SDS sample buffer (0.25 M Tris-HCl, pH 6.8, 10% SDS, 25% glycerol) containing 10 μg/mL aprotinin, 10 μg/mL leupeptin, 20 mM NaF, 2 mM sodium orthovanadate, and 1 mM phenylmethylsulfonyl fluoride. Protein concentrations were determined using the BCA assay (Pierce) with bovine serum albumin as a standard. Thirty micrograms of total protein were loaded per lane and separated by SDS PAGE. After 4° C. transfer, the nitrocellulose (Invitrogen) was blocked with either 5% nonfat milk or 5% BSA in Tris-buffered saline, pH 8.0, containing 0.1% Tween 20 (TBST) prior to addition of primary antibodies and followed with peroxidase-conjugated anti-mouse IgG or anti-rabbit IgG. Protein was detected using SuperSignal West Dura Chemiluminescent Substrate (Thermo Scientific) with a UVP BioSpectrum 500 Imaging System (Upland, Calif.). Densitometry was calculated via Image J software.

[2] = test system: T98G and U118 glioma cells; assay: TWEAK stimulation: SGEF mRNA (qPCR) and protein (western blot) expression; conditions: TWEAK 100 ng/mL, increase apparent within two hours
Protocol: Human astrocytoma cell lines U87, U118, and T98G (American Type Culture Collection), as well as primary glioblastoma xenograft cells (GBM & GBM TMZ-R lines) were maintained in DMEM (Gibco, USA) supplemented with 10% heat-inactivated fetal bovine serum (FBS; Gibco, USA) at 37° C. with 5% CO2. For all assays with TWEAK treatment, cells were cultured in reduced serum (0.5% fetal bovine serum) for 16 h before stimulation with recombinant TWEAK at 100 ng/mL in DMEM+0.1% bovine serum albumin for the indicated times.
as §1, with “After 4° C. transfer, the nitrocellulose (Invitrogen) was blocked with either 5% nonfat milk or 5% BSA in Tris-buffered saline, pH 8.0, containing 0.1% Tween 20 (TBST) prior to addition of primary antibodies and followed with peroxidase-conjugated anti-mouse IgG or anti-rabbit IgG.” left out, “software. […]” for “software.”

[3] = test system: SGEF promoter NF-κB p65 consensus sequence; assay: Biotinylated electrophoretic mobility shift assay, NF-κB binding site of the SGEF promoter; conditions: T98G nuclear proteins 2 hours after TWEAK 100 ng/mL
Protocol: T98G glioma cells were plated at a density of 3×10^6 in 100 mm^2 tissue culture dishes in normal growth medium. After 12 h, cells were cultured under reduced serum (0.5% FBS) for an additional 16 h before TWEAK (100 ng/mL) addition for 2 h. Isolation of cell nuclear protein was carried out using the NE-PER kit (Pierce) according to the protocol of the manufacturer. Protein-DNA complexes were detected using biotin end-labeled double-stranded DNA 23-mer probes containing the NF-κB binding sites within the SGEF promoter (NF-κB-SGEF wt target sequence: 5′-GTCTAGGAGGCAAATCCCAGAAA-3′ (SEQ ID NO:5); NF-κB-SGEF mt target sequence: 5′-GTCTAGGAGCCAGATCGCAGAAA-3′(SEQ ID NO:6)). The binding reactions were done using the LightShift kit (Pierce) according to the protocol of the manufacturer. Where indicated, 200-fold molar excess of unlabeled NF-κB-SGEF wt oligonucleotides or anti-p65 antibody was included. The reaction products were resolved by gel electrophoresis and detected by chemiluminescence according to the protocol of the manufacturer (Pierce).

Molecule | time to phosphorylation of H2A.X after TMZ treatment [1] [min] | SGEF mRNA levels [2] | SGEF protein levels [2] | NF-κB binding to the SGEF promoter region [3]
Cn1nnc2c(C(N)=O)ncn2c1=O [TMZ, temozolomide] | ≤ 30 |  |  | 
B1 |  | increased | increased | NF-κB binds to the SGEF promoter region
